Test results from patent US20170145113A1 (Genentech, published 2017).

B1: h15H6.v2 variant HC1 (HC-T30K) Fab (Fab, V domains shown)
VH: EVQLVQSGAEVKKPGASVKVSCKASGYTFKDSEMHWVRQAPGQGLEWIGGVDPETDGAAYNQKFKGRATITRDTSTSTAYLELSSLRSEDTAVYYCTRGYDYDYALDYWGQGTLVTVSS
VL: DIQMTQSPSSLSASVGDRVTITCRASSSVNFIHWYQQKPGKAPKPLISATSNLASGVPSRFSGSGSGTDFTLTISSLQPEDFATYYCQQWSSNPWTFGQGTKVEIK
notes: Fab-Flag tag fusion from 293T cells
B2: h15H6.v2 variant HC2 (HC-T30R) Fab (Fab, V domains shown)
VH: EVQLVQSGAEVKKPGASVKVSCKASGYTFRDSEMHWVRQAPGQGLEWIGGVDPETDGAAYNQKFKGRATITRDTSTSTAYLELSSLRSEDTAVYYCTRGYDYDYALDYWGQGTLVTVSS
VL: DIQMTQSPSSLSASVGDRVTITCRASSSVNFIHWYQQKPGKAPKPLISATSNLASGVPSRFSGSGSGTDFTLTISSLQPEDFATYYCQQWSSNPWTFGQGTKVEIK
notes: as for B1
B3: h15H6.v2 variant HC3 (HC-T28K) Fab (Fab, V domains shown)
VH: EVQLVQSGAEVKKPGASVKVSCKASGYKFTDSEMHWVRQAPGQGLEWIGGVDPETDGAAYNQKFKGRATITRDTSTSTAYLELSSLRSEDTAVYYCTRGYDYDYALDYWGQGTLVTVSS
VL: DIQMTQSPSSLSASVGDRVTITCRASSSVNFIHWYQQKPGKAPKPLISATSNLASGVPSRFSGSGSGTDFTLTISSLQPEDFATYYCQQWSSNPWTFGQGTKVEIK
notes: as for B1
B4: h15H6.v2 variant HC4 (HC-T28R) Fab (Fab, V domains shown)
VH: EVQLVQSGAEVKKPGASVKVSCKASGYRFTDSEMHWVRQAPGQGLEWIGGVDPETDGAAYNQKFKGRATITRDTSTSTAYLELSSLRSEDTAVYYCTRGYDYDYALDYWGQGTLVTVSS
VL: DIQMTQSPSSLSASVGDRVTITCRASSSVNFIHWYQQKPGKAPKPLISATSNLASGVPSRFSGSGSGTDFTLTISSLQPEDFATYYCQQWSSNPWTFGQGTKVEIK
notes: as for B1
B5: h15H6.v2 variant HC5 (HC-M34L) Fab (Fab, V domains shown)
VH: EVQLVQSGAEVKKPGASVKVSCKASGYTFTDSELHWVRQAPGQGLEWIGGVDPETDGAAYNQKFKGRATITRDTSTSTAYLELSSLRSEDTAVYYCTRGYDYDYALDYWGQGTLVTVSS
VL: DIQMTQSPSSLSASVGDRVTITCRASSSVNFIHWYQQKPGKAPKPLISATSNLASGVPSRFSGSGSGTDFTLTISSLQPEDFATYYCQQWSSNPWTFGQGTKVEIK
notes: as for B1
B6: h15H6.v2 variant HC6 (HC-E53A) Fab (Fab, V domains shown)
VH: EVQLVQSGAEVKKPGASVKVSCKASGYTFTDSEMHWVRQAPGQGLEWIGGVDPATDGAAYNQKFKGRATITRDTSTSTAYLELSSLRSEDTAVYYCTRGYDYDYALDYWGQGTLVTVSS
VL: DIQMTQSPSSLSASVGDRVTITCRASSSVNFIHWYQQKPGKAPKPLISATSNLASGVPSRFSGSGSGTDFTLTISSLQPEDFATYYCQQWSSNPWTFGQGTKVEIK
notes: as for B1
B7: h15H6.v2 variant HC7 (HC-A58F) Fab (Fab, V domains shown)
VH: EVQLVQSGAEVKKPGASVKVSCKASGYTFTDSEMHWVRQAPGQGLEWIGGVDPETDGAFYNQKFKGRATITRDTSTSTAYLELSSLRSEDTAVYYCTRGYDYDYALDYWGQGTLVTVSS
VL: DIQMTQSPSSLSASVGDRVTITCRASSSVNFIHWYQQKPGKAPKPLISATSNLASGVPSRFSGSGSGTDFTLTISSLQPEDFATYYCQQWSSNPWTFGQGTKVEIK
notes: as for B1
B8: h15H6.v2 variant HC8 (HC-Y100I) Fab (Fab, V domains shown)
VH: EVQLVQSGAEVKKPGASVKVSCKASGYTFTDSEMHWVRQAPGQGLEWIGGVDPETDGAAYNQKFKGRATITRDTSTSTAYLELSSLRSEDTAVYYCTRGYDYDIALDYWGQGTLVTVSS
VL: DIQMTQSPSSLSASVGDRVTITCRASSSVNFIHWYQQKPGKAPKPLISATSNLASGVPSRFSGSGSGTDFTLTISSLQPEDFATYYCQQWSSNPWTFGQGTKVEIK
notes: as for B1
B9: h15H6.v2 variant HC9 (HC-A100aP) Fab (Fab, V domains shown)
VH: EVQLVQSGAEVKKPGASVKVSCKASGYTFTDSEMHWVRQAPGQGLEWIGGVDPETDGAAYNQKFKGRATITRDTSTSTAYLELSSLRSEDTAVYYCTRGYDYDYPLDYWGQGTLVTVSS
VL: DIQMTQSPSSLSASVGDRVTITCRASSSVNFIHWYQQKPGKAPKPLISATSNLASGVPSRFSGSGSGTDFTLTISSLQPEDFATYYCQQWSSNPWTFGQGTKVEIK
notes: as for B1
B10: h15H6.v2 variant LC1 (LC-S29R) Fab (Fab, V domains shown)
VH: EVQLVQSGAEVKKPGASVKVSCKASGYTFTDSEMHWVRQAPGQGLEWIGGVDPETDGAAYNQKFKGRATITRDTSTSTAYLELSSLRSEDTAVYYCTRGYDYDYALDYWGQGTLVTVSS
VL: DIQMTQSPSSLSASVGDRVTITCRASSRVNFIHWYQQKPGKAPKPLISATSNLASGVPSRFSGSGSGTDFTLTISSLQPEDFATYYCQQWSSNPWTFGQGTKVEIK
notes: as for B1
B11: h15H6.v2 variant LC2 (LC-N31H) Fab (Fab, V domains shown)
VH: EVQLVQSGAEVKKPGASVKVSCKASGYTFTDSEMHWVRQAPGQGLEWIGGVDPETDGAAYNQKFKGRATITRDTSTSTAYLELSSLRSEDTAVYYCTRGYDYDYALDYWGQGTLVTVSS
VL: DIQMTQSPSSLSASVGDRVTITCRASSSVHFIHWYQQKPGKAPKPLISATSNLASGVPSRFSGSGSGTDFTLTISSLQPEDFATYYCQQWSSNPWTFGQGTKVEIK
notes: as for B1
B12: h15H6.v2 variant LC4 (LC-N53H) Fab (Fab, V domains shown)
VH: EVQLVQSGAEVKKPGASVKVSCKASGYTFTDSEMHWVRQAPGQGLEWIGGVDPETDGAAYNQKFKGRATITRDTSTSTAYLELSSLRSEDTAVYYCTRGYDYDYALDYWGQGTLVTVSS
VL: DIQMTQSPSSLSASVGDRVTITCRASSSVNFIHWYQQKPGKAPKPLISATSHLASGVPSRFSGSGSGTDFTLTISSLQPEDFATYYCQQWSSNPWTFGQGTKVEIK
notes: as for B1
B13: h15H6.v2 variant LC5 (LC-N53E) Fab (Fab, V domains shown)
VH: EVQLVQSGAEVKKPGASVKVSCKASGYTFTDSEMHWVRQAPGQGLEWIGGVDPETDGAAYNQKFKGRATITRDTSTSTAYLELSSLRSEDTAVYYCTRGYDYDYALDYWGQGTLVTVSS
VL: DIQMTQSPSSLSASVGDRVTITCRASSSVNFIHWYQQKPGKAPKPLISATSELASGVPSRFSGSGSGTDFTLTISSLQPEDFATYYCQQWSSNPWTFGQGTKVEIK
notes: as for B1
B14: h15H6.v2 variant LC6 (LC-Q89H) Fab (Fab, V domains shown)
VH: EVQLVQSGAEVKKPGASVKVSCKASGYTFTDSEMHWVRQAPGQGLEWIGGVDPETDGAAYNQKFKGRATITRDTSTSTAYLELSSLRSEDTAVYYCTRGYDYDYALDYWGQGTLVTVSS
VL: DIQMTQSPSSLSASVGDRVTITCRASSSVNFIHWYQQKPGKAPKPLISATSNLASGVPSRFSGSGSGTDFTLTISSLQPEDFATYYCHQWSSNPWTFGQGTKVEIK
notes: as for B1

Each binder was assayed against T1, His-tagged human HtrA1 protease domain (human, UniProt Q92743 161-367) (assay: SPR (BIACORE T200), huHtrA1-PD-His captured by anti-His, Fab injected).
T1 construct: His-tagged protease domain; also called huHtrA1-PD-His; huHtrA1-PD
T1 sequence (Q92743 other isoform, or with tags, fused parts or gaps limits assumed): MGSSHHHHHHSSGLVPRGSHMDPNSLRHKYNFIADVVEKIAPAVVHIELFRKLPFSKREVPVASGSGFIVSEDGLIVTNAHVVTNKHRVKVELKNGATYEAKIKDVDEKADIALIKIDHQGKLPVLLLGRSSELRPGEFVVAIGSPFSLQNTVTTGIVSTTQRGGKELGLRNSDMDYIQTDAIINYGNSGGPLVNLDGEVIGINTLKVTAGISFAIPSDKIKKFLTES
Procedure: To determine the binding affinity of selected Fab variants for HtrA1, SPR measurement with a BIACORE™ T200 instrument was performed. Briefly, a series S sensor chip CM5 was activated with 1-EDC and NHS reagents according to the supplier's instructions, and anti-His antibody was coupled to achieve 200-300 response units (RU), then following by blocking un-reacted groups with 1 M ethanolamine. For kinetics measurements, approximately 5 nM of huHtrA1-PD-His was first injected at 10 μl/min flow rate to capture approximately 100 RU at 2 different flow cells (FC), except for FC1 (which served as a reference). Next, 5-fold serial dilutions of Fab in HBS-P buffer (0.01M HEPES pH 7.4, 0.15M NaCl, 0.005% surfactant P20) from low (0.8 nM) to high (50 nM) were injected (flow rate: 30 μl/min). The binding responses on HtrA1 were corrected by subtracting of RU from a blank flow cell. The sensorgram was recorded and subject to reference and buffer subtraction before evaluating by BIACORE® T200 Evaluation Software (version 2.0). Association rates (kₒₙ) and dissociation rates (koff) were calculated using a simple one-to-one Langmuir binding model. The equilibrium dissociation constant (KD) was calculated as the ratio of koff/kₒₙ.
With B1 the Kd was 0.475 nM, the koff was 0.000165 s⁻¹ and the kon was 347000 M⁻¹ s⁻¹. With B2 the Kd was 0.449 nM, the koff was 0.000164 s⁻¹ and the kon was 366000 M⁻¹ s⁻¹. Binder B3 has a Kd of 0.374 nM, a koff of 0.000171 s⁻¹ and a kon of 456000 M⁻¹ s⁻¹. With B4 the Kd was 0.643 nM, the koff was 0.000212 s⁻¹ and the kon was 331000 M⁻¹ s⁻¹. Binder B5 has a Kd of 0.481 nM, a koff of 0.000246 s⁻¹ and a kon of 511000 M⁻¹ s⁻¹. B6 gave a Kd of 2.58 nM, a koff of 0.00026 s⁻¹ and a kon of 101000 M⁻¹ s⁻¹. B7 gave a Kd of 0.611 nM, a koff of 0.000165 s⁻¹ and a kon of 271000 M⁻¹ s⁻¹. With B8 the Kd was 0.603 nM, the koff was 0.000237 s⁻¹ and the kon was 393000 M⁻¹ s⁻¹. For B9, the Kd was 0.618 nM, the koff was 0.00021 s⁻¹ and the kon was 340000 M⁻¹ s⁻¹. Work on B10 yielded a Kd of 1.55 nM, a koff of 0.000229 s⁻¹ and a kon of 148000 M⁻¹ s⁻¹. B11 was tested, and the Kd was 0.836 nM, the koff was 0.00019 s⁻¹ and the kon was 228000 M⁻¹ s⁻¹. Work on B12 yielded a Kd of 0.517 nM, a koff of 0.000213 s⁻¹ and a kon of 413000 M⁻¹ s⁻¹. With B13 the Kd was 0.481 nM, the koff was 0.000212 s⁻¹ and the kon was 441000 M⁻¹ s⁻¹. B14 was tested, and the Kd was 0.642 nM, the koff was 0.000251 s⁻¹ and the kon was 390000 M⁻¹ s⁻¹.
